In patent publication US20240074473A1, “METHOD FOR INDUCING HYPERTROPHIC MUSCLE FIBERS FOR INDUSTRIAL MEAT PRODUCTION” (Yeda Research and Development Co. Ltd., priority 2021, published 2024):

Assays:
[1] = Risk categorization of cell culture media ingredients
Excerpt: Category 1: These cell culture media components are food ingredients/additives that are GRAS or permitted by federal regulation without limitation on use. Exemplary compounds in this category include innocuous ingredients such as sugars, pH buffers, water soluble vitamins, and common antioxidants such as tocopherols.
Category 2: These cell culture media components are common dietary nutrients and are anticipated to have GRAS status for food use or be permitted by regulation for addition to food. Examples of such compounds include most of the inorganic salts and macronutrients that are present within the cell culture media. […] Majority of nutrients present within the poultry cell-based meat may be readily measured using common validated methods for food composition testing. […]
For example, situations where the compound is not detectable in finished product or is present at equivalent levels in comparator foods, compounds that are thermo-labile and will be digested during cooking, and/or compounds that are expected to be digested to innocuous compounds following ingestion. […] For Category 3 substances a final consideration in the safety assessment process may involve hazard characterization of the potential for a substance to produce toxic biological effects outside of the endpoints measured in a sub-chronic rat toxicity study. […]

[2] = Maximum estimated dietary exposure to media ingredients per 100 g serving; conditions: assumption of complete transfer of media components to the finished product on a wt/wt basis

B1: Bovine Transferrin: iron carrier of cell culture media (protein, UniProt Q29443 20-704, looked up)
Serotransferrin: DPERTVRWCTISTHEANKCASFRENVLRILESGPFVSCVKKTSHMDCIKAISNNEADAVTLDGGLVYEAGLKPNNLKPVVAEFHGTKDNPQTHYYAVAVVKKDTDFKLNELRGKKSCHTGLGRSAGWNIPMAKLYKELPDPQESIQRAAANFFSASCVPCADQSSFPKLCQLCAGKGTDKCACSNHEPYFGYSGAFKCLMEGAGDVAFVKHSTVFDNLPNPEDRKNYELLCGDNTRKSVDDYQECYLAMVPSHAVVARTVGGKEDVIWELLNHAQEHFGKDKPDNFQLFQSPHGKDLLFKDSADGFLKIPSKMDFELYLGYEYVTALQNLRESKPPDSSKDECMVKWCAIGHQERTKCDRWSGFSGGAIECETAENTEECIAKIMKGEADAMSLDGGYLYIAGKCGLVPVLAENYKTEGESCKNTPEKGYLAVAVVKTSDANINWNNLKDKKSCHTAVDRTAGWNIPMGLLYSKINNCKFDEFFSAGCAPGSPRNSSLCALCIGSEKGTGKECVPNSNERYYGYTGAFRCLVEKGDVAFVKDQTVIQNTDGNNNEAWAKNLKKENFEVLCKDGTRKPVTDAENCHLARGPNHAVVSRKDKATCVEKILNKQQDDFGKSVTDCTSNFCLFQSNSKDLLFRDDTKCLASIAKKTYDSYLGDDYVRAMTNLRQCSTSKLLEACTFHKP
- Risk Assessment Category [1]: 3
- Maximum Estimated Exposure per 100 g serving [2]: 150 mg
